Data reported in the PETadex activity labels (doi:10.1074/jbc.m303867200).

What was measured:
Settings in all cases: pH 8; 37 °C
p-NP-C12 = substrate: p-NP-C12
p-NP-C2 = substrate: p-NP-C2
p-NP-C3 = substrate: p-NP-C3
p-NP-C4 = substrate: p-NP-C4
p-NP-C6 = substrate: p-NP-C6

B1: unnamed (protein)
chain: MNNIWWQTKGQGNVHLVLLHGWGLNAEVWRCIDEELSSHFTLHLVDLPGFGRSRGFGALSLADMAEAVLQQAPDKAIWLGWSLGGLVASQIALTHPERVQALVTVASSPCFSARDEWPGIKPDVLAGFQQQLSDDFQRTVERFLALQTMGTETARQDARALKKTVLALPMPEVDVLNGGLEILKTVDLRQPLQNVSMPFLRLYGYLDGLVPRKVVPMLDKLWPHSESYIFAKAAHAPFISHPAEFCHLLVALKQRV
In the case of B1, the Km (p-NP-C12) is reported as 600 µM, the kcat (p-NP-C12) is reported as 1.5 s⁻¹ and the kcat/Km (p-NP-C12) is reported as 2500 M⁻¹ s⁻¹. It also gave a Km (p-NP-C2) of 290 µM, a kcat (p-NP-C2) of 18.5 s⁻¹ and a kcat/Km (p-NP-C2) of 63800 M⁻¹ s⁻¹. It also gave a Km (p-NP-C3) of 350 µM, a kcat (p-NP-C3) of 13.1 s⁻¹ and a kcat/Km (p-NP-C3) of 37400 M⁻¹ s⁻¹. For the same protein, the Km (p-NP-C4) was 330 µM, the kcat (p-NP-C4) was 6.1 s⁻¹ and the kcat/Km (p-NP-C4) was 18500 M⁻¹ s⁻¹. The Km (p-NP-C6) was 250 µM, the kcat (p-NP-C6) was 4 s⁻¹ and the kcat/Km (p-NP-C6) was 16000 M⁻¹ s⁻¹.
